# From paper PMC2173300 (The Journal of Cell Biology, 2002)
# T1: GST–Cdc14p (budding yeast, UniProt Q00684 1-551)
# T1 sequence: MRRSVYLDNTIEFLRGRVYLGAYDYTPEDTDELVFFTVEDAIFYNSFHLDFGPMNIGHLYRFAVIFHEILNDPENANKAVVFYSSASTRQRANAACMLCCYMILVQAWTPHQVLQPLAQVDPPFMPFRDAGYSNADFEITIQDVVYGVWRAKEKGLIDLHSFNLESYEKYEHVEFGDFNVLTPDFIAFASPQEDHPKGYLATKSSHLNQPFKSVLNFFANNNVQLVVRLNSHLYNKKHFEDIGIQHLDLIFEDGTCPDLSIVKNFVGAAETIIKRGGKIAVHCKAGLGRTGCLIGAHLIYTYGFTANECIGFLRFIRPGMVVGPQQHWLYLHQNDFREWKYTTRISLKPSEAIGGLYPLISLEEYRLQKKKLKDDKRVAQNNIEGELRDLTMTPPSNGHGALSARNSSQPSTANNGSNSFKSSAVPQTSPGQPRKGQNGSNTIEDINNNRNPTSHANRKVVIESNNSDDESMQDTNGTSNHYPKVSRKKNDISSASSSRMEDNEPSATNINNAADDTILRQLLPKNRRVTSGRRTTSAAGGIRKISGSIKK
# T2: 6His–Cdc14p (budding yeast, UniProt Q00684 1-551)
# T2 sequence: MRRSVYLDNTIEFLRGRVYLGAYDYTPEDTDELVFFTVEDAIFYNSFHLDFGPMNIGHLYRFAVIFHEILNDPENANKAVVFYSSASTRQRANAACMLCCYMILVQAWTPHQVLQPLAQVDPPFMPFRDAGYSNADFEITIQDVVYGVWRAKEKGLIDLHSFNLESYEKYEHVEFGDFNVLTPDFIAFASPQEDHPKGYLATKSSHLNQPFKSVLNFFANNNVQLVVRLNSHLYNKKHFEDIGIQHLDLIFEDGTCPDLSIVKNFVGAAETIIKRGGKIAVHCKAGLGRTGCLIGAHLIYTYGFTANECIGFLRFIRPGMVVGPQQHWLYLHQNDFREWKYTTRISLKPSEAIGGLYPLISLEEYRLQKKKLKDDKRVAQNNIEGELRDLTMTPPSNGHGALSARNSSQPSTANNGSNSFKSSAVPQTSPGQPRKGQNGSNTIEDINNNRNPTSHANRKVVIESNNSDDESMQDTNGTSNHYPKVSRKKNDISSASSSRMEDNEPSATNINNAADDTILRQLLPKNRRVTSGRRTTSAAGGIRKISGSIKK
# How the values were obtained:
# GST–Cdc14p = molecular target: T1, GST–Cdc14p; experiment: pull-down
# 6His–Cdc14p = molecular target: T2, 6His–Cdc14p; experiment: pull-down
binder,measurement,setting,value
6His–Tem1p (natural protein) MATPSTGANNSIPAVRNQVEVQVGLVGDAQVGKTSLMVKYVQNIYDKEYTQTLGVNFLKRKVSIRSTDIIFSIMDLGGQREFINMLPIATVGSSVIIFLFDLTRPETLSSIKEWYRQAYGLNDSAIPILVGTKYDLLIDLDPEYQEQISRTSMKYAQVMNAPLIFCSTAKSINIQKIFKIALAKIFNLTLTIPEINEIGDPLLIYKHLGGQQHRHHNKSQDRKSHNIRKPSSSPSSKAPSPGVNT,binding result,GST–Cdc14p,binds
GST–Bfa1p^1–394 (domain or fragment) MSIRPLTLNGLDEPETSFEELNTTLPRFQSHETLTLEENVPPLSTSTYIPPPSSVGTSDTGTVFSNSTSAFWSNKQADDDQDMEVDQDDEFLNDFQEFQNKKDDFDDAIKTNFHLRNGCRTGPFKNDIFAEEFDRKLSLEDKPRLKQPRSMMELKPKRKLSNSVTSRNLRSGNSVRFKKSMPNLALVNPAIREEEEDEEREREDQREFNYKIDNDTQDTILAKFSSDDEGDFLTGFEELEGEAIDETISSNDKESADHPRFLKKSSSSLPLKISPAQYDIVKHDELLTPGLHRRQRDWNTQQELDSFKEKRSVRHCSNQNVQLNGPAKIKTIKQQIDHNTPMKKGSMIYNPKTMKWEGNENVLSKFSDVDTANRKALLIKNKLQRDADSKKQKY,binding result,6His–Cdc14p,binds
